This is an account of results in patent USRE47150 (Bayer, dated 2018).

The labels stand for the following.
T1: human tissue factor pathway inhibitor (TFPI) (human, UniProt P10646 29-304, limits assumed)
T1 construct: bought; also called hTFPI; human TFPI
T1 sequence (looked up): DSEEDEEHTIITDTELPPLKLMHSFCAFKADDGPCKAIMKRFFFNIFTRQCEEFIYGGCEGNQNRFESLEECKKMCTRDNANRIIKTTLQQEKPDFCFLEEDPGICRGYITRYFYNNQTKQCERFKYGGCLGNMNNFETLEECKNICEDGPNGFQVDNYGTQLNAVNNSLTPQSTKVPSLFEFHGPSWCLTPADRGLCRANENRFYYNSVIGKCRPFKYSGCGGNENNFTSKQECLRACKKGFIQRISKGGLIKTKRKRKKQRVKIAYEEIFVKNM

T2: mouse tissue factor pathway inhibitor (TFPI) (mouse, UniProt O54819 29-289, limits assumed)
T2 construct: bought; also called mTFPI; murine TFPI
T2 sequence (looked up): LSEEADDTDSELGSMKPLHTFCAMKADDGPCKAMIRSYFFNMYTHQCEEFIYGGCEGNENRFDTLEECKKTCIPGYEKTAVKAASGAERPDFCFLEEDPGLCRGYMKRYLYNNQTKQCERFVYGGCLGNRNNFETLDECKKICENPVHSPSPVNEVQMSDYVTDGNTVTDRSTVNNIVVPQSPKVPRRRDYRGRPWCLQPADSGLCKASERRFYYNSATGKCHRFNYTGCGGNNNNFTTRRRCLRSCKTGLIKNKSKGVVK

B1: 2A8 HC_K99L (Fab, V domains shown)
VH: QVQLVESGGGLVQPGGSLRLSCAASGFTFRSYGMSWVRQAPGKGLEWVSSIRGSSSSTYYADSVKGRFTISRDNSKNTLYLQMNSLRAEDTAVYYCARLYRYWFDYWGQGTLVTVSS
VL: DIELTQPPSVSVAPGQTARISCSGDNLRNYYAHWYQQKPGQAPVVVIYYDNNRPSGIPERFSGSNSGNTATLTISGTQAEDEADYYCQSWDDGVPVFGGGTKLTVLG
notes: also called 2A8-9
B2: 2A8 wild-type Fab (Fab, V domains shown)
VH: B1 VH with L99K
VL: B1 VL
notes: Fab with c-myc (or HA, or none) and 6xHis tag at the C-terminus of the heavy chain; also called 2A8wt; 2A8 wt
B3: 2A8-127 (HC S35D+K99L/LC Y48F+N51V+G56D+V96W) (Fab, V domains shown)
VH: B1 VH with S35D
VL: B1 VL with Y48F, N51V, G56D, V96W
B4: 2A8-143 (HC S35D+S55R+K99L/LC Y48F+N51V+D91L+V96W) (Fab, V domains shown)
VH: B1 VH with S35D, S55R
VL: B1 VL with Y48F, N51V, D91L, V96W
B5: 2A8-216 (HC S31V+I51D+S55R+K99V/LC Y48F+D91L+V96W) (Fab, V domains shown)
VH: B1 VH with S31V, I51D, S55R, L99V
VL: B1 VL with Y48F, D91L, V96W
B6: 2A8-200 (HC S35D+S55R+K99L/LC Y48F+N51V+D91W) (Fab, V domains shown)
VH: B1 VH with S35D, S55R
VL: B1 VL with Y48F, N51V, D91W
B7: 4B7 HC_D62R (Fab, V domains shown)
VH: QVQLQQSGPGLVKPSQTLSLTCAISGDSVSSNSAAWSWIRQSPGRGLEWLGIIYKRSKWYNRYAVSVKSRITINPDTSKNQFSLQLNSVTPEDTAVYYCARWHSDKHWGFDYWGQGTLVTVSS
VL: DIVMTQSPLSLPVTPGEPASISCRSSQSLVFSDGNTYLNWYLQKPGQSPQLLIYKGSNRASGVPDRFSGSGSGTDFTLKISRVEAEDVGVYYCQQYDSYPLTFGQGTKVEIKR
notes: also called 4B7-D62R

Residue numbers refer to the chain shown, from its start. Names may count otherwise.

One assay has as its target T1, human tissue factor pathway inhibitor …. The assay is described as follows: competitive ELISA. In general terms: In an ELISA, binding on a coated surface is turned into a signal by an enzyme label.
As for B1, the variant/wild-type was found to be 13.5 ratio.

For another assay, the target named is T2, mouse tissue factor pathway inhibitor …. The assay is described as follows: competitive ELISA.
Turning to B1, the variant/wild-type was found to be 10.8 ratio.

The target is the same in the next assay. In words: SPR, TFPI immobilized.
Broadly, the Kd is a measure of binding affinity in units of concentration. Higher therefore signals a looser complex. Usually koff stands for the rate constant with which the complex falls apart. Higher therefore signals a short-lived complex. One may read the kon as the second-order rate constant of association. High values mean faster complex formation, low ones slower complex formation. The molecule B2 returned a KD fold improvement of 1 fold, a Kd of 3290 pM, a koff of 0.0031 s⁻¹ and a kon of 940000 M⁻¹ s⁻¹.
Molecule B3 came in with a KD fold improvement of 18.5 fold.
Regarding B4, the KD fold improvement came out at 48.5 fold.
B5 returned a KD fold improvement of 63.9 fold, a Kd of 51.5 pM, a koff of 0.000216 s⁻¹ and a kon of 4.19e+06 M⁻¹ s⁻¹.
For B6, the KD fold improvement amounted to 55.4 fold.

In another assay the target is T3, recombinant TFPI of the FXa restoring assay (human, mouse or rat; not specified for Tables 9 and 10). The assay is described as follows: cell-based or functional assay.
Turning to B7, the “IC50, FXa restoring assay” value amounted to 0.058 µg/mL and the “Improvement vs parental, FXa restoring assay” value worked out at 25 fold.
As for B2, the “IC50, FXa restoring assay” value was found to be 0.7 µg/mL and the “Improvement vs parental, FXa restoring assay” value is 1 fold.
For B1, the “IC50, FXa restoring assay” value turned out to be 0.181 µg/mL and the “Improvement vs parental, FXa restoring assay” value was found to be 3.9 fold.

A further assay concerns the target T1, human tissue factor pathway inhibitor …. In words: SPR, TFPI immobilized. A general note: Surface plasmon resonance follows binding to a sensor surface in real time, without labels.
With B7, the Improvement amounted to 191 fold, binding was put at a Kd of 58.2 pM, the koff was found to be 0.000165 s⁻¹ and the kon was found to be 2.83e+06 M⁻¹ s⁻¹.
B2: the Improvement turned out to be 1 fold, the Kd was 2240 pM, the koff was found to be 0.007 s⁻¹ and the kon was found to be 3.13e+06 M⁻¹ s⁻¹.
B1: the Improvement stood at 7.22 fold, binding was put at a Kd of 309 pM, the koff amounted to 0.000803 s⁻¹ and the kon was 2.6e+06 M⁻¹ s⁻¹.

A further assay shares this target. In words: SPR, TFPI immobilized. The source holds these as a separate data set.
In turn, B2 displayed a KD fold improvement of 1 fold, a Kd of 1850 pM, a koff of 0.0038 s⁻¹ and a kon of 2.05e+06 M⁻¹ s⁻¹.
The molecule B3 yielded a KD fold improvement of 22 fold, a Kd of 84.1 pM, a koff of 0.000141 s⁻¹ and a kon of 1.68e+06 M⁻¹ s⁻¹.
The molecule B4 showed a KD fold improvement of 50.9 fold, a Kd of 36.4 pM, a koff of 0.000105 s⁻¹ and a kon of 2.88e+06 M⁻¹ s⁻¹.
Regarding B5, the KD fold improvement is 39.6 fold, the Kd worked out at 46.7 pM, the koff stood at 0.000154 s⁻¹ and the kon was 3.29e+06 M⁻¹ s⁻¹.
In the case of B6, the KD fold improvement was 53.7 fold, the Kd amounted to 34.4 pM, the koff was found to be 9.88e-05 s⁻¹ and the kon is 2.87e+06 M⁻¹ s⁻¹.

A further assay concerns the target T2, mouse tissue factor pathway inhibitor …. The assay is described as follows: SPR, TFPI immobilized. This is another data set of the same source.
The molecule B7 displayed an Improvement of 137 fold, a Kd of 427 pM, a koff of 0.00367 s⁻¹ and a kon of 8.58e+06 M⁻¹ s⁻¹.
In turn, B2 had an Improvement of 1 fold, a Kd of 3510 pM, a koff of 0.00517 s⁻¹ and a kon of 1.47e+06 M⁻¹ s⁻¹.
As to B1, the Improvement is 7.2 fold; the affinity, expressed as Kd, was 488 pM; the koff is 0.000759 s⁻¹; the kon was found to be 1.56e+06 M⁻¹ s⁻¹.

A further assay has as its target T1, human tissue factor pathway inhibitor …. The assay is described as follows: competitive ELISA. This is another data set of the same source.
Consider B3, for which the variant/HC_K99L was 18.8 ratio.
In turn, B4 displayed a variant/HC_K99L of 17.8 ratio.
For B5, the variant/HC_K99L came to 16.4 ratio.
Same read-out and setting: with B6 the figure was 19.7 ratio.

A further assay concerns the target T2, mouse tissue factor pathway inhibitor …. In words: competitive ELISA. This is another data set of the same source.
For B3, the variant/HC_K99L stood at 18.7 ratio.
Take B4: the variant/HC_K99L is 13.4 ratio.
B5: the variant/HC_K99L is 11.9 ratio.
As to B6, the variant/HC_K99L came out at 17.4 ratio.

The target of another assay is T3, recombinant TFPI of the FXa restoring …. In words: cell-based or functional assay. This is another data set of the same source.
B2: the “EC50, FXa restoring assay” value came out at 7910 pM and the “Improvement vs parental 2A8, FXa restoring assay” value (from here on “Improvement vs parental 2A8”) is 1 fold.
As for B1, the “EC50, FXa restoring assay” value was found to be 1000 pM and the “Improvement vs parental 2A8” value worked out at 7.9 fold.
For B3 the same measures were 440 pM and 18.2 fold.
For B4 the same measures were 500 pM and 15.8 fold.
For B5 the same measures were 1080 pM and 7.3 fold.
As for B6, the “EC50, FXa restoring assay” value was 810 pM and the “Improvement vs parental 2A8” value worked out at 9.7 fold.

For a further assay, the target named is T1, human tissue factor pathway inhibitor …. In words: SPR, TFPI immobilized. The source holds these as a separate data set.
In the case of B7, the “kd fold improvement against 4B7” value was roughly 50 fold.

For another assay, the target named is T2, mouse tissue factor pathway inhibitor …. In words: equilibrium ELISA.
For B7, the variant/wild-type was determined as 230 ratio.

Another assay has as its target T1, human tissue factor pathway inhibitor …. The assay is described as follows: competitive ELISA. The source holds these as a separate data set.
B7: the variant/wild-type worked out at 32.3 ratio.
